# Results reported in PMC2655673.
# Assays:
# Experiment in all cases: SFM DNA tethering
# [1] = biological target: RAD50;NBS1 (Homo sapiens;Homo sapiens) (UniProt Q92878+O60934)
# [2] = biological target: RAD50;MRE11;NBS1 (Homo sapiens;Homo sapiens;Homo sapiens) (UniProt Q92878+P49959+O60934)
# [3] = biological target: RAD50;MRE11 (Homo sapiens;Homo sapiens) (UniProt Q92878+P49959)
substance,measurement,setting,value
3.0-kb linear DNA fragment,binding signal (% DNA in tethered complexes),[1],30
same,binding signal (% DNA in tethered complexes),[2],20
same,binding signal (% DNA in tethered complexes),[3],16
